For orientation: EC50 means the midpoint of the concentration-response curve. Higher therefore signals lower potency in that assay.

Values joined by “and” are separate entries in the source; they are usually repeats but may differ in a detail not shown here. Equal values may be shown once. “Also recorded” adds a separate entry of the source.

For assay [1], the system named is A549−GR6A04+ cells. In words: Subcutaneous xenograft model. As to conditions: for tumour growth versus buffer control: 10 mg/kg, 3 doses on D0, D4 and D8, start at tumour size >150 mm3. Type of assay: in vivo, NCr Nude mice. The protocol: Xenograft models were established using A549−GR6A04+ cells in NCr Nude mice. 5E6 cells in DMEM basal media were mixed at a 1:1 ratio with Matrigel, and injected subcutaneously at a volume of 200 μl. Tumours were allowed to form and reach a size of >150 mm^3, before they were randomised into 5 groups of 5 mice each. The groups were treated with mAbs as follows: (1) Buffer control; (2) GR6A04-MMAE; (3) Hu-GR6A04; (4) GR6A04; (5) MG1.45-MMAE isotype control. mAbs were injected via tail vein injection at a total volume of 100 μl. Each dose, were applicable, is at 200 μg (equivalent to 10 mg/kg), and treatment was done every 4 days, for a total of 3 doses (Day 0, 4 and 8). Tumour size was monitored over 50 days.

For assay [2], the system named is H1299. In words: ADC dose-response, CellTiter-Glo viability assay. As to conditions: H1299 non-binding cells. Type of assay: cell-based. As for the experimental part:
(§1) Cells were seeded into a black coated 96 well plate (Grenier Bio-one, UK) at a range of density from 1000-5000 cells per well (depending on the cell type used) and 90 μL per well. The plate was then incubated for 24 hours at 37° C. in humidified air with 5% CO2. After 24 hours, 10 μL of mAb or buffer was added to each well and the plate was again placed at 37° C. in humidified air with 5% CO2. 4 days after addition of mAb or buffer, 100 μL of CTG substrate (Promega, Wisconsin, USA) was added to each well. The plate was then left in the dark for 10 minutes, with vigorous shaking. The cell viability of the samples was then quantified using Tecan I-control (Tecan, Switzerland).
(§2) GR6A04 and a commercial mouse IgG1 isotype antibody (Clone MG1.45 from BioLegend) were directly conjugated with MMAE toxin (Moradec, San Diego, USA) at a DAR of 3.0 and 3.3 respectively. Dose-response curve for the conjugated mAbs were established with the CTG assay with a serial dilution range of 0 to 4.5 μg/ml. The cell viability of the cells was measure 4 days post treatment as described previously.
On the technique in general: In ATP-based viability assays light output follows the ATP content of the culture.

Assay [3] deals with A549−GR6A04+ cells. In words: ADC dose-response, CellTiter-Glo viability assay. The format is cell-based. The following applies: viability 4 days post treatment. As for the experimental part: as §1, §2
Assay [4] deals with PC-9. In words: ADC dose-response, CellTiter-Glo viability assay. Type of assay: cell-based. The following applies: viability 4 days post treatment. The protocol:
as §1, §2

The test system of assay [5] is A549−GR6A04− populations. In words: ADC dose-response, CellTiter-Glo viability assay. As to conditions: A549−GR6A04− non-binding cells. The format is cell-based. The protocol: as §1, §2
Assay [6] deals with PC-9 and A549 cells. In words: Flow cytometry binding of GR6A04 derivatives. The format is cell-based. The protocol: Cells were harvested as single cell suspensions using trypsin. 1E5 cells were used per sample, and incubated with 100 μl of mAb culture supernatant for 30 min. Cells were then washed with 1% bovine serum albumin in PBS, and further incubated with 100 μl of goat anti-mouse antibody fluorescein isothiocyanate (FITC)-conjugated (1:500, DAKO, Denmark) for 15 min at 4° C. in the dark. Cells were again washed and resuspended in 200 μL of 1% BSA/PBS for analysis on Guava® easy Cyte 8HT Benchtop Flow Cytometer (Merck Millipore, USA). For interrogation of […] binding, cells were fixed with 4% PFA/PBS (Affymetrix, USA) at room temperature for 10 min, washed in PBS, and permeabilised with 0.1% triton/PBS for 5 min at room temperature, before proceeding with incubation with mAb supernatant/primary antibody. For staining with propidium iodide, PI was added to a final concentration of 5 μg/mL for 5 min just prior to analysis by the flow cytometer.

Assay [7] deals with A549−GR6A04+. In words: ADCC reporter bioassay (Promega, Luciferase reporter for FcγR). Type of assay: cell-based. The protocol: (§3) ADCC activity was measured using a reporter bioassay (Promega; ADCC Reporter Bioassay, #G7010). The ADCC bioassay was carried out according to the manufacturer's protocol Briefly, PC-9 and A549 cells were seeded at 5,000 cells per well in a 96-well clear bottom black tissue culture plates (Corning; #3904) in low 4% IgG-serum (Promega; #G711A) media and allowed to attach and spread overnight. Serial dilutions of Hu-GR6A04 were incubated in triplicate wells for approximately 15 min at 37° C., 5% CO2. Following incubation, engineered effector cells were added to the wells at approximately 150,000 cells per well. After 6 hours, Bio-Glo™ Luciferase Assay Substrate (Promega; #G719A and #G720A) was added to the wells and luminescence was measured using the Infinite® 200 microplate reader (Tecan).
In general terms: A reporter such as luciferase makes a cellular process visible.

Assay [8] addresses PC-9. The description is as above. Type of assay: cell-based. As for the experimental part:
as §3

B1: GR6A04-MMAE (conjugate)
VH: SGPELVKPGASVKMSCKASGNTFTSYVMHWVKQKPGQGLEWIGYINPYNDGTKYNEKFKGKATLTSDKSSSTAYMELSSLTSEDSAVYYCARSTARATPYFYAMDYWGQGTSVTVSS
VL: DILMTQSPSSLAVTAGEKVTMRCKSSQSLLWSVNQNSYLSWYQLKQGQPPKLLLYGASIRESWVPDRFTGSGSGTDFTLTISNVHVEDLAVYYCQHNHGSFLPYTFGGGTKLEIK
Turning to B1, the “tumour growth versus buffer control” value in assay [1] is given as “little tumour growth”. The molecule also returned a tumour growth in assay [1] (I.V. 10 mg/kg, every 4 days for 3 doses, throughout the 45 days of study) of less than 2 fold. The “effect on cell growth” value in assay [2] and in assay [5] was “did not have an effect on cell growth” in each case. Further, the EC50 in assay [3] was 3.33 nM; in assay [4], 19.8 nM and 19.6 nM. Further, the flow cytometry binding result in assay [6] was “comparable to unconjugated GR6A04; also recorded: not affected after conjugation”.

B2: Hu-GR6A04: human chimeric mAb with GR6A04 VH and VL cloned into a human Ig constant region backbone, expressed in CHO cells (antibody, V domains shown)
VH: SGPELVKPGASVKMSCKASGNTFTSYVMHWVKQKPGQGLEWIGYINPYNDGTKYNEKFKGKATLTSDKSSSTAYMELSSLTSEDSAVYYCARSTARATPYFYAMDYWGQGTSVTVSS
VL: DILMTQSPSSLAVTAGEKVTMRCKSSQSLLWSVNQNSYLSWYQLKQGQPPKLLLYGASIRESWVPDRFTGSGSGTDFTLTISNVHVEDLAVYYCQHNHGSFLPYTFGGGTKLEIK
For B2, in assay [1], the “tumour growth versus buffer control” value is recorded as “repression of tumour growth; also recorded: slower growth compared to the buffer control”. The EC50 in assay [7] came out at 1.33 nM; in assay [8] it was 39.6 nM. For the same molecule, in assay [6], the flow cytometry binding result is reported as “comparable to GR6A04”.

Source of the values: patent US12227570B2, “Anti-CEACAM6 antibodies and methods of use” (Singapore Health Services PTE LTD, priority 2016, dated 2025).
